Laboratory results reported in patent US20160106861A1, “AXL ANTIBODY-DRUG CONJUGATE AND ITS USE FOR THE TREATMENT OF CANCER” (PIERRE FABRE MEDICAMENT, priority 2013, published 2016).

Key:
[1] = molecular target: T1, rhMer-Fc (R and D Systems, cat N° 891-MR) (human, UniProt Q12866 26-499, limits assumed); experiment: ELISA on coated protein
T1 construct: Bought protein; not shown: Fc of human IgG
T1 sequence (looked up): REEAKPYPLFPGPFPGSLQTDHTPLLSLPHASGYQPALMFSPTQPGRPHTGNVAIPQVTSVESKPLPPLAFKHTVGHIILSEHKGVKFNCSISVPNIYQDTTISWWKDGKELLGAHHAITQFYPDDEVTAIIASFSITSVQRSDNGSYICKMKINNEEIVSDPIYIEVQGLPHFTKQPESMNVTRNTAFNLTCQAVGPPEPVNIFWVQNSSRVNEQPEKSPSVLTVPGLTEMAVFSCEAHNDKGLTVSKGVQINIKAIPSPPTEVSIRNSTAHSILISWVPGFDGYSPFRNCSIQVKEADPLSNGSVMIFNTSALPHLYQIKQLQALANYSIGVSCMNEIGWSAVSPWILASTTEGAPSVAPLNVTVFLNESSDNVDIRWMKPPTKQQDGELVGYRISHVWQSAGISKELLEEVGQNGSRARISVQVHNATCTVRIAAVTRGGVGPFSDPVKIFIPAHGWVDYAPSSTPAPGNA

[2] = molecular target: T2, rhDtk-Fc (R and D Systems, cat N° 859-DK) (human, UniProt Q06418 41-428, limits assumed); experiment: ELISA on coated protein
T2 construct: Bought protein; also called Tyro3; not shown: Fc of human IgG
T2 sequence (looked up): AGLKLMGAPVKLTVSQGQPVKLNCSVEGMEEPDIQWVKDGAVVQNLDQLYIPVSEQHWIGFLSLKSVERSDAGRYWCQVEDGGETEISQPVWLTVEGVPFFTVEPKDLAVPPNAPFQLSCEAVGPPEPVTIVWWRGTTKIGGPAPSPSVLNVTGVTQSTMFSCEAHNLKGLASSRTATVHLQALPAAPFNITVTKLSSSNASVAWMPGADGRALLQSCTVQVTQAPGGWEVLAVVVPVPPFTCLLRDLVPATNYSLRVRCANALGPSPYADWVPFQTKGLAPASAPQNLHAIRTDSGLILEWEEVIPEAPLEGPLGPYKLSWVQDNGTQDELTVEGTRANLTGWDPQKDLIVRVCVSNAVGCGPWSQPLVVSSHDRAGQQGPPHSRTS

[3] = molecular target: T3, membrane Axl receptor (Homo sapiens, UniProt P30530); experiment: FACS binding on human tumor cells; conditions: various human tumor cells
T3 construct: endogenous in cells; host or cells: human tumor cell lines SN12C, Calu-1, MDA-MB435S, MDA-MB231, NCI-H125, MCF7 (Axl-negative), Panc1
T3 sequence (P30530 26-894): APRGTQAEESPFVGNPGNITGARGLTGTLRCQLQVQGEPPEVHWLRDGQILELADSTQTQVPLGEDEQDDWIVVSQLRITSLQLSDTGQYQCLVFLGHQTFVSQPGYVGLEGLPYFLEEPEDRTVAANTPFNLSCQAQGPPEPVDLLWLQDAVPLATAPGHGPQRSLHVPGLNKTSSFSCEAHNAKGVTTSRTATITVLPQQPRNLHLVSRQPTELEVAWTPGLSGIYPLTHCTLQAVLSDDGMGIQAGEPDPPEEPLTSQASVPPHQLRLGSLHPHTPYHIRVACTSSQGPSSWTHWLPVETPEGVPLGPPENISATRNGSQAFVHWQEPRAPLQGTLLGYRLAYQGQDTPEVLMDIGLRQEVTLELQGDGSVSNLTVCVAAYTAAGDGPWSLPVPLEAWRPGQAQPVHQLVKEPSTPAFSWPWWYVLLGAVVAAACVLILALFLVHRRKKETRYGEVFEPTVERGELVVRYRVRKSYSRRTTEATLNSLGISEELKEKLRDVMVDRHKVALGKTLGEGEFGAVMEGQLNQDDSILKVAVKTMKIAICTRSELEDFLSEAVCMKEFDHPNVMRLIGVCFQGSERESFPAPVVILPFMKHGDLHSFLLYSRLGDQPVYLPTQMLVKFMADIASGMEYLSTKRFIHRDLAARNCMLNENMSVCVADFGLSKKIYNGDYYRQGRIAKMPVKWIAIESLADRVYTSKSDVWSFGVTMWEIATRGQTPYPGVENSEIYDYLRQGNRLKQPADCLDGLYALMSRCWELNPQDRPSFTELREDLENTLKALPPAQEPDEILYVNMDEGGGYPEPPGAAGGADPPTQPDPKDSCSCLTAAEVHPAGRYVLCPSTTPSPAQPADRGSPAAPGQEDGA
Experimental: For cell surface binding studies, two fold serial dilutions of a 10 μg/ml (6.66 10^−8 M) primary antibody solution (1613F12, MAB154 or mIgG1 isotype control 9G4 Mab) are prepared and are applied on 2·10^5 cells for 20 min at 4° C. After 3 washes in phosphate-buffered saline (PBS) supplemented with 1% BSA and 0.01% NaN3, cells were incubated with secondary antibody Goat anti-mouse Alexa 488 ( 1/500° dilution) for 20 minutes at 4° C. After 3 additional washes in PBS supplemented with 1% BSA and […], cells were analyzed by FACS (Facscalibur, Becton-Dickinson). At least 5000 cells were assessed to calculate the mean value of fluorescence intensity.
1613F12 dose response curves were prepared. MFIs obtained using the various human tumor cells were then analysed with Prism software.

[4] = test system: SN12C cells; experiment: Internalization study by fluorescent immunocytochemistry (confocal microscopy); format: cell-based, human; conditions: 10 μg/ml, 1 h and 2 h at 37° C.
Experimental: Briefly, SN12C tumor cell line was cultured in RMPI1640 with 1% L-glutamine and 10% of FCS for 3 days before experiment. Cells were then detached using trypsin and plated in 6-multiwell plate containing coverslide in RPMI1640 with 1% L-glutamine and 5% FCS. The next day, 1613F12 was added at 10 μg/ml. Cells treated with an irrelevant antibody were also included. The cells were then incubated for 1 h and 2 h at 37° C., 5% CO2. For T 0 h, cells were incubated for 30 minutes at 4° C. to determine antibody binding on cell surface. Cells were washed with PBS and fixed with paraformaldehyde for 15 minutes. Cells were rinsed and incubated with a goat anti-mouse IgG Alexa 488 antibody for 60 minutes at 4° C. to identify remaining antibody on the cell surface. To follow antibody penetration into the cells, cells were fixed and permeabilized with saponin. A goat anti-mouse IgG Alexa 488 (Invitrogen) was used to stained both the membrane and the intracellular antibody. […] Cells were washed three times and nuclei were stained using Draq5. After staining, cells were mounted in Prolong Gold mounting medium (Invitrogen) and analyzed by using a Zeiss LSM 510 confocal microscope.

B1: m1613F12 (murine 1613F12, hybridoma CNCM I-4505) (antibody, V domains shown)
VH: EVHLQQSGAELVKPGASVKLSCTASGFNIRDTYIHWVKQRPEQGLEWIGRLDPANGHTKYGPNFQGRATMTSDTSSNTAYLQLSSLTSEDTAVYYCARGAYYYGSSGLFYFDYWGQGTTLSVSS
VL: DVQITQSPSYLATSPGETITINCRASKSISKYLAWYQEKPGKTNKLLIYSGSTLQSGVPSRFSGSGSGTDFTLTISSLEPEDFAMYFCQQHHEYPLTFGAGTELELK
notes: Murine monoclonal antibody; also called Axl antibody
In the case of B1, the binding result [1] is reported as “no binding”, the binding result [2] is reported as “no binding” and the “binding to membrane Axl receptor on human tumor cells (FACS, saturation curves)” value [3] is reported as “binds specifically to the membrane Axl receptor”. The “internalization (membrane and intracellular staining)” value [4] was “internalization of 1613F12 into SN12C cells”.
